These are literature values, as cited in publication PMC12208613.

Where “and” joins values, the source holds several entries; their conditions need not be identical. Equal entries are not always repeated.

In the data set the target is CD7 (Homo sapiens) (UniProt P09564).
CD7 (Homo sapiens), sequence (P09564 26-180): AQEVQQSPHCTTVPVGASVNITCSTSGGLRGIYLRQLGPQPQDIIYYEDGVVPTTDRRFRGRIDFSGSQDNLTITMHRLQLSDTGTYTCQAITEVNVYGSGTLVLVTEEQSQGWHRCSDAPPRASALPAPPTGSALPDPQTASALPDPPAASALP

K12, sequence (Q8WVN6 29-145): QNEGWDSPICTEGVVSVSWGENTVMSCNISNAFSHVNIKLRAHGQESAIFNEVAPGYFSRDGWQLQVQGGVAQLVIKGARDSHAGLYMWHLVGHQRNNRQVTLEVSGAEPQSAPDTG

On to K12 (from UniProt Q8WVN6), for which the equilibrium dissociation constant (Kd) (usually the constant that tells how readily two partners part at equilibrium) is 10 nM and 38 nM.
